Results from paper PMC4699798 (Cell, 2015).

Molecular target: Slit-N fused to alkaline phosphatase (Drosophila)
Test: alkaline phosphatase fusion binding assay on beads

- Kd: 22.2 ± 2.85 nM
B1: Dscam1 EC4 fused to Fc (Fc fusion)
chain: ANPPDADQKGPVFLKEPTNRIDFSNSTGAEIECKASGNPMPEIIWIRSDGTAVGDVPGLRQISSDGKLVFPPFRAEDYRQEVHAQVYACLARNQFGSIISRDVHVRAVVAQYYEADVNKEHVIRGNSAVIKCLIPSFVADFVEVVSWHTDEEENYFPGAEYDGKYLVLPSGELHIREVGPEDGYKSYQCRTKHRLTGETRLSATKGRLVITEPVSSSPPKINALTYKPNIVESMASTAILCPAQGYPAPSFRWYKFIEGTTRKQAVVLNDRVKQVSGTLIIKDAVVEDSGKYLCVVNNSVGGESVETVLTVTAPLSAKIDPPTQTVDFGRPAVFTCQYTGNPIKTVSWMKDGKAIGHSEPVLRIESVKKEDKGMYQCFVRNDQESAEASAELK
